Reference: US20200024360A1 (Janssen / Centocor, published 2020)

T1: Cynomolgous monkey PSMA, full length (Macaca fascicularis, UniProt Q04609 1-750 (human entry))
T1 construct: On transfected HEK293F cells; also called cyno PSMA; EHH56646.1
T1 chain: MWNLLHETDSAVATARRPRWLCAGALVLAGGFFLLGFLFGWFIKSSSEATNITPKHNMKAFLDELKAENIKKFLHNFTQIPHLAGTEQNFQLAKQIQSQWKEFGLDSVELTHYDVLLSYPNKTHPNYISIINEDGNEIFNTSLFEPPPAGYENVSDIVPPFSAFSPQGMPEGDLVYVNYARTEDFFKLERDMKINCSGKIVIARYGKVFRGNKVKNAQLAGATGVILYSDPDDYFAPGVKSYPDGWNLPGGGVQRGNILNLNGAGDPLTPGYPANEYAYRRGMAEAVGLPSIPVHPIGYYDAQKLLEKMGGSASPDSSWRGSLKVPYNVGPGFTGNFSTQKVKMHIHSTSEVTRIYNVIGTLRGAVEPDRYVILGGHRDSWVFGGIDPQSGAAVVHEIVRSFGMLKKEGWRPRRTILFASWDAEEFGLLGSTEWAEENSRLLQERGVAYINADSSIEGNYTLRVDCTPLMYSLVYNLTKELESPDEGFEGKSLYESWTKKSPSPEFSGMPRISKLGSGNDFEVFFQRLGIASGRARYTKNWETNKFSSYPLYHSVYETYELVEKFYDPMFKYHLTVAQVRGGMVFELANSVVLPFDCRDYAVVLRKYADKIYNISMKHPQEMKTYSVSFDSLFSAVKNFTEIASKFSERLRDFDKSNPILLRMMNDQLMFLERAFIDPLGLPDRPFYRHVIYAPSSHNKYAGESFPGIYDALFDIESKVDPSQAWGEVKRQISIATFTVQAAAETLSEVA

B1: G11 (antibody, human IgG1, kappa, V domains shown)
VH: EVQLLESGGGLVQPGGSLRLSCAASGFTFSSYGMSWVRQAPGKGLEWVSGINGGGGSKYYADSVKGRFTISRDNSKNTLYLQMNSLRAEDTAVYYCAKTSAQRFDYWGQGTLVTVSS
VL: DIQMTQSPSSLSASVGDRVTITCRASQSISSYLNWYQQKPGAPKLLIYAASSLQSGVPSRFSGSGSGTDFTLTISSLQPEDFATYYCQQSYSLPLTFGQGTKVEIKR
notes: In-house phage-derived anti-CD3 control; also called GI
B2: PSMB49 (Fab, V domains shown)
VH: QVQLVQSGAEVKKPGSSVKVSCKASGGTFSSYAISWVRQAPGQGLEWMGGIIPIFGTANYAQKFQGRVTITADESTSTAYMELSSLRSEDTAVYYCARASRVWHASYGYLDYWGQGTLVTVSS
VL: EIVLTQSPATLSLSPGERATLSCRASQSVSKWLAWYQQKPGQAPRLLIYDASNRATGIPARFSGSGSGTDFTLTISSLEPEDFAVYYCQQRFTAPWTFGQGTKVEIK
notes: Fab; also called PSMM50; Fab of mAb PSMB121

Assays:
[1] = molecular target: T2, cynomolgus CD3ε on primary cynomolgus CD4+ T cells (cynomolgus monkey, UniProt Q95LI5 22-198); assay: FACS, primary cynomolgus CD4+ T cells
T2 construct: whole, on cells
T2 sequence (Q95LI5 22-198): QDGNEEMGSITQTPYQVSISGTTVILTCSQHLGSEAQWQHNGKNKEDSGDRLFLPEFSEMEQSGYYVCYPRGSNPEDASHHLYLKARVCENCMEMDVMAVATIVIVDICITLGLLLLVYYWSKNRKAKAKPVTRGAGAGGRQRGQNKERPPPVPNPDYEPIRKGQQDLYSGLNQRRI

[2] = molecular target: T1, Cynomolgous monkey PSMA, full length; assay: flow cytometry, mammalian Fab supernatant titrated on cyno PSMA (PSMG5) HEK cells, anti-human kappa-RPE
Experimental: Plates were read on a BD FACS Array flow cytometer. FACS data was analyzed in FlowJo software by live gating the healthy population of cells using forward scatter and side scatter, and then analyzing the cells within this gate for PE staining. Mean fluorescence intensity (MFI) was calculated and exported into Microsoft Excel. […] Fabs were sequenced and moved forward for cloning into mammalian expression vector for rescreening. True positives were selected from the binding of mammalian cell expressed Fab supernatants to PSMA-expressing cell lines.
Binding profiles among hits were compared across cell lines expressing different species of PSMA.

Binder	binding result [1]	EC50 (read off the curve) [2] [µg/mL]
B1	no binding	–
B2	–	~0.2
